This note sets out measurements from patent publication US20240261333A1 (published 2024).

What all share (test): co-IP, anti-FLAG, lysate of cells with C-FLAG B3GNT2; mass spectrometry
One assay addresses T1, SAMM50 (human, UniProt Q9Y512 1-469).
T1 construct: also called NP_056195.3
T1 sequence (looked up): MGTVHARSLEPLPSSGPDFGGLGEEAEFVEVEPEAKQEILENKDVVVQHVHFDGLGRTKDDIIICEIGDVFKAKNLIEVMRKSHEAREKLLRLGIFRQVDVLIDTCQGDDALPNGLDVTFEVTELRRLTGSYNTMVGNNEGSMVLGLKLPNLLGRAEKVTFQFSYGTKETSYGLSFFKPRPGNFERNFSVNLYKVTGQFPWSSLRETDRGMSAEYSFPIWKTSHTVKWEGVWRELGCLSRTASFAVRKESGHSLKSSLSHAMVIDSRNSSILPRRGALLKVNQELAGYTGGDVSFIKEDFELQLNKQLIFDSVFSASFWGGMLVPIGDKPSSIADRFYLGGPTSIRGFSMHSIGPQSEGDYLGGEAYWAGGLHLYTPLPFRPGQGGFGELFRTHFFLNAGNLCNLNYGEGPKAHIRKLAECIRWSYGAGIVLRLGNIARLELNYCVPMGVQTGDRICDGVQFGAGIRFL

A further assay addresses T2, G3BP1 (human, UniProt Q13283 2-466).
T2 construct: also called NP_005745.1

The target of the next assay is T3, RBM39 (human, UniProt Q14498-3 2-508, limits assumed).
T3 construct: also called NP_001310351.1 (+3)
T3 sequence (looked up): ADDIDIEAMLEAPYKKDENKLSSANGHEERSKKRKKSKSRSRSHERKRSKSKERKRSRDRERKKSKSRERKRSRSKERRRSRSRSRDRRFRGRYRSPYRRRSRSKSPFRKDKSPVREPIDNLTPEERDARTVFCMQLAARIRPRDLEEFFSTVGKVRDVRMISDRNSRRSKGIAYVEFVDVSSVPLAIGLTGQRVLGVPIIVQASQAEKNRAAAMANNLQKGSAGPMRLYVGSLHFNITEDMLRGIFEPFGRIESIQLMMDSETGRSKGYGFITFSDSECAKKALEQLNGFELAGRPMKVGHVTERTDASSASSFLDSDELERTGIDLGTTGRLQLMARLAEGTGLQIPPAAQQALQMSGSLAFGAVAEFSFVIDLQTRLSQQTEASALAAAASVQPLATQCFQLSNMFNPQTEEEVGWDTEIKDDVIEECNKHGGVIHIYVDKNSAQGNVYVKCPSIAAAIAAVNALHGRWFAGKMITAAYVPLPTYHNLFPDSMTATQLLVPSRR

The next assay addresses T4, HNRNPK (human, UniProt P61978-3 1-440, limits assumed).
T4 construct: also called NP_001305115.1 (+1)

T4 sequence (P61978 other isoform, or with tags, fused parts or gaps limits assumed): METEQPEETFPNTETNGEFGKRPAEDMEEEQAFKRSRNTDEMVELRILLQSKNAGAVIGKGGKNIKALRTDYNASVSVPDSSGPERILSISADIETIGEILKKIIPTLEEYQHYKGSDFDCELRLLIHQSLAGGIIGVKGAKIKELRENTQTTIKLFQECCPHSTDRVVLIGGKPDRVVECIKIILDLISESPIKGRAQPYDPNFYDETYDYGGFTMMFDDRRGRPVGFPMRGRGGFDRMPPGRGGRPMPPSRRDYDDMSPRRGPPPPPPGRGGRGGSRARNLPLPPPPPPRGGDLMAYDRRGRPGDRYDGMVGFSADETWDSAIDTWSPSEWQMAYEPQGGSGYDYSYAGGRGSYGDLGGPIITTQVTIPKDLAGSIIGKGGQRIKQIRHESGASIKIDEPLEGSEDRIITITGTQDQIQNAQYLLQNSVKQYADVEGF
T2 sequence (Q13283 2-466 limits assumed): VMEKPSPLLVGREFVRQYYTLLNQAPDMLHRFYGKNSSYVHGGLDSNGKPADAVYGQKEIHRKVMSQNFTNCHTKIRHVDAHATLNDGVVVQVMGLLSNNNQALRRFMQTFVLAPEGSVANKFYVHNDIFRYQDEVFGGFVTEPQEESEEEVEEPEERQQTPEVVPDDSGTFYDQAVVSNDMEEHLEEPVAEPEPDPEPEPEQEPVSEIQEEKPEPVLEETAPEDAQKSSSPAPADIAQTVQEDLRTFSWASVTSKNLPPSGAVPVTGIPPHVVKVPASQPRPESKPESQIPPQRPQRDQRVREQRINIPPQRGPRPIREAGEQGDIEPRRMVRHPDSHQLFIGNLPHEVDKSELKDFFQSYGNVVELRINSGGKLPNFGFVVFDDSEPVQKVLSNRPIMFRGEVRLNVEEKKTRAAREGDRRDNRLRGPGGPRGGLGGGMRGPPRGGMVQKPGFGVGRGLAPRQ

B1: C-terminal FLAG tagged B3GNT2 (enzyme, human, UniProt Q9NY97 1-397, looked up)
chain: MSVGRRRIKLLGILMMANVFIYFIMEVSKSSSQEKNGKGEVIIPKEKFWKISTPPEAYWNREQEKLNRQYNPILSMLTNQTGEAGRLSNISHLNYCEPDLRVTSVVTGFNNLPDRFKDFLLYLRCRNYSLLIDQPDKCAKKPFLLLAIKSLTPHFARRQAIRESWGQESNAGNQTVVRVFLLGQTPPEDNHPDLSDMLKFESEKHQDILMWNYRDTFFNLSLKEVLFLRWVSTSCPDTEFVFKGDDDVFVNTHHILNYLNSLSKTKAKDLFIGDVIHNAGPHRDKKLKYYIPEVVYSGLYPPYAGGGGFLYSGHLALRLYHITDQVHLYPIDDVYTGMCLQKLGLVPEKHKGFRTFDIEEKNKNNICSYVDLMLVHSRKPQEMIDIWSQLQSAHLKC
notes: Overexpressed in cells and pulled down from the lysate with mouse anti-FLAG antibody; also called C-FLAG B3GNT2; C-term flag; not shown: C-terminal FLAG tag
Take B1: the “co-IP mass spectrometry count” value worked out at 0 with SAMM50, 33 in the assay with G3BP1, 5 with RBM39 and 12 in the assay with HNRNPK.
